T1: AXL on CHO-AXL细胞 (human, UniProt P30530 26-894)
T1 construct: whole, on cells; the cell line itself is only called CHO-AXL
T1 sequence (looked up): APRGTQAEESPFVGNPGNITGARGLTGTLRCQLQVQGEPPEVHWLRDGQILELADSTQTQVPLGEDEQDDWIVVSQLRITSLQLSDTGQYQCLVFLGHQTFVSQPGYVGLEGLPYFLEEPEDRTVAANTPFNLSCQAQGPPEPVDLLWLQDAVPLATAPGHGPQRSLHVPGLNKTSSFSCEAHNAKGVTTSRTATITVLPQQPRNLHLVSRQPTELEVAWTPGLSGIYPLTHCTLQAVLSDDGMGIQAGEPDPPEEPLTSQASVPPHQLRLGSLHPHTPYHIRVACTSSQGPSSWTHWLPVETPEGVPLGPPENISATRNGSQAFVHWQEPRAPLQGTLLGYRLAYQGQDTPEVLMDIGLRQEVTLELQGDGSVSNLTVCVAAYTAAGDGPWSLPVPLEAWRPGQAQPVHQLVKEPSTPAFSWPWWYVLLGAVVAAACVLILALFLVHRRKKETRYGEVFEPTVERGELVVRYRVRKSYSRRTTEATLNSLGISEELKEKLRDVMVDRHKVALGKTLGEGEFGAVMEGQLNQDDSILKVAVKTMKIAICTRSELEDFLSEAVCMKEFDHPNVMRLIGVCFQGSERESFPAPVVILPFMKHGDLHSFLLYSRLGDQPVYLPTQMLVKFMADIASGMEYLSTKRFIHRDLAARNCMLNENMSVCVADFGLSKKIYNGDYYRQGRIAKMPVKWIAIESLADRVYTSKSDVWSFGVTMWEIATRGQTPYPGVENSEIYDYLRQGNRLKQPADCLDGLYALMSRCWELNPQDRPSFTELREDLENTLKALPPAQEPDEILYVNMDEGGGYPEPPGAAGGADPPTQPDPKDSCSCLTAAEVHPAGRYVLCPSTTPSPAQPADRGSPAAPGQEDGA

B1: Hu001-11抗体 (full-length human IgG1 kappa) (antibody, V domains shown)
VH: QVQLLESGGGVVQPGRSLRLSCAASGFTFSSYGMHWVRQAPGKGLEWVAVISYDGSNKYYADSVKGRFTISRDNSKNTLYLQMNSLRAEDTAVYYCAKYGSSGPYWYFDLWGQGTLVTVSA
VL: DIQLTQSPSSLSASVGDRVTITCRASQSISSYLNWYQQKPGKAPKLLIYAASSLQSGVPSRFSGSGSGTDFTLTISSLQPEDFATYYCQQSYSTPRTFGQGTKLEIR
B2: Hu001-5抗体 (full-length human IgG1 kappa) (antibody, V domains shown)
VH: QVQLLESGGGVVQPGRSLRLSCAASGFTFSSYGMHWVRQAPGKGLEWVAVISYDGSNKYYADSVKGRFTISRDNSKNTLYLQMNSLRAEDTAVYYCAKDQVLAPVGGGLFDYWGQGTLVTVSA
VL: DIQLTQSPSSLSASVGDRVTITCRASQSISTYLNWYQQKPGKAPESLIFAASSLASGVPSRFSGSGSGTDFTLTISSLQPEDFATYYCQQSYSTPRTFGPGTKVEIK

Columns and labels:
AXL on CHO-AXL细胞 [1] = target: T1, AXL on CHO-AXL细胞; test: flow cytometry on CHO-AXL cells, pH6.0 against pH7.4
AXL on CHO-AXL细胞 [2] = target: T1, AXL on CHO-AXL细胞; test: flow cytometry on CHO-AXL cells, acidic condition pH6.0, reference CCT301-38

Row | Binder | 平均荧光强度 (MFI), acidic condition over neutral condition (AXL on CHO-AXL细胞 [1]) | 平均荧光强度 (MFI), fold over positive control CCT301-38 (AXL on CHO-AXL细胞 [2])
1 | B1 | ~1.5 倍 (fold) | ~4 倍 (fold)
2 | B2 | ~1.5 倍 (fold) | ~4 倍 (fold)

Reference: patent CN113444180A (SHANGHAI SINOBAY BIO TECH CO LTD, dated 2021)
